Tested on: HPPD polypeptides
Test: coupled HPPD activity assay: turnover and residual turnover in crude extracts
Format: biochemical, Pseudomonas fluorescens
Conditions: for Residual turnover [%]: 100 μM Cmpd. 1, signal change with inhibitor divided by signal change without inhibitor; for Turnover: absence of Cmpd. 1, kinetic changes in absorbance (OD) at 320 nm, 30 min; for Turnover / Residual turnover: high substrate concentration; for Residual turnover: presence of 100 μM Cmpd. 1, changes in absorbance (OD) at 320 nm
Description: The activity of HPPD polypeptides was determined in absence or presence of HPPD inhibitors using the coupled HPPD activity assay (FIG. 1).
For the determination of the residual activity, the apparent kinetic constant (kapp) of the determined substrate conversion was measured as kinetic changes in absorbance (OD) at 320 nm in a coupled assay, in that homogentisate (HGA) formed by HPPD from HPP is directly converted into the well absorbing molecule maleylacetoacetate (MAA) by a second enzyme homogentisate dioxygenase (HGD), applied in excess uniformly in all assays (see FIG. 1). The measurements were performed in 384 micro titer plates (Greiner Bio-One GmbH, Frickenhausen, Germany) by plate readers (Tecan infinite M1000 or M1000PRO, Tecan, Männedorf, Switzerland). The kcat/kM ratio of an enzymatic activity is proportional to the apparent kinetic constant kapp and is proportional to kcat/kM*[E] ([E]=enzyme concentration). […] As both kapp measurements in the presence and absence of inhibitor were performed by use of the identical enzyme sample, crude or purified, and thereby at the same enzyme concentration, the enzyme concentration eliminates from the calculation of residual activity and the ratio of both kapp directly indicates the change of kM due to the inhibition.
The assay solution used for determination of residual activities in raw HPPD polypeptide samples was composed by 200 mM sodium phosphate (Merck, Darmstadt, Germany, pH 7.0), 5 mM MgCl2 (Merck, Darmstadt, Germany), 20 mM ascorbate (Sigma-Aldrich, St. Louis, USA), 1 mM DTT (Sigma-Aldrich, St. Louis, USA), 0.1% Pluronic F-68 (Sigma-Aldrich, St. Louis, USA), 40 μM FeSO4 (Sigma-Aldrich, St. Louis, USA), about 8 mg/ml purified HGD and 500 μM HPP from a 1 M stock solution in DMSO (Sigma-Aldrich, St. Louis, USA) and equilibrated for 20 min on ice. For every HPPD polypeptide sample two assays were performed in quadruplets, whereby 5 μl of HPPD polypeptide sample were mixed firstly with 5 μl buffer (1×BugBuster®; (Merck, Darmstadt, Germany); in 140 mM Tris, pH 7.8, with 1:25000 diluted BNase®; Qiagen, Hilden, Germany)) or 5 μl inhibitor diluted in the same buffer from a 0.1 M stock solution in DMSO (200 μM resulting in 100 μM in the HPPD polypeptide/inhibitor sample) in the reference and inhibition assay, respectively, and subsequently with 10 μl assay solution. The change in absorbance at 320 nm was followed in 1 min intervals for 30 min. The kapp values were calculated as signal slope over time in the early phase of the kinetic reaction, usually for the first 5-10 minutes of the measurements. Additionally and according to the calculated residual activity, the total conversion, i.e. the absolute change in signal, in the 30 min timeframe was monitored as measure of turnover, and a residual turnover was calculated by dividing the change in signal in the presence of inhibitor by the change in signal in the reference sample without inhibitor.
Residual turnover were determined according to Example 3 by measuring total change in signal in the presence and absence of Cmpd. 1 (2-chloro-3-(methylsulfanyl)-N-(1-methyl-1H-tetrazol-5-yl)-4-(trifluoromethyl)benzamide). For each mutant HPPD polypeptide, the total change in signal without HPPD inhibitor herbicides served for normalization of the total change in signal in the presence of the herbicide.

B1: 54 (protein)
chain: MADLYENPMGLMGFEFIEFASPTPGTLEPIFEIMGFTKVATHRSKNVHLYRQGEINLILNNEPNSIASYFAAEHGPSVCGMAFRVKDSQKAYNRALELGAQPIHIDTGPMELNLPAIKGIGGAPLYLIDRFGEGSSIYDIDFVYLEGVERNPVGAGLKVIDHLTHNVYRGRMVYWANFYEKLFNFREARYFDIKGEYTGLTSKAMSAPDGMIRIPLNEESSKGAGQIEEFLMQFNGEGIQHVAFLTDDLVKTWDALKKIGMRFMTAPADNYYEMLEGRLPDHGEPVDQLQARGILLDGSSVEGDKRLLLQIFSETLMGPVFFEFIQRKGDDGFGPDSFKVLFEQKERDQVRRGVLTAD
modifications: mutant HPPD polypeptide
- Residual turnover [%]: 66%
- Turnover: 0.089
- Residual turnover: 0.059

B2: 56 (protein)
chain: MADLYENPMGLMGFEFIEFASPTPGTLEPIFEIMGFTKVATHRSKNVHLYRQGEINLILNNEPNSIASYFAAEHGPSVCGMAFRVKDSQKAYNRALELGAQPIHIDTGPMELNLPAIKGIGGAPLYLIDRFGEGSSIYDIDFVYLEGVERNPVGAGLKVIDHLTHNVYRGRMVYWANFYEKLFNFREARYFDIKGEYTGLTSKAMSAPDGMIRIPLNEESSKGAGQIEEFLMQFNGEGIQHVAFLTDDLVKTWDALKKIGMRFMTAPADNYYEMLEGRLPDHGEPVDQLQARGILLDGSSVEGDKRLLLQIFSETLMGPVFFEFIQRKGDDGFGPHSFKVLFEQIERDQVRRGVLTAD
modifications: mutant HPPD polypeptide
- Residual turnover [%]: 57%
- Turnover: 0.152
- Residual turnover: 0.086

B3: 58 (protein)
chain: MADLYENPMGLMGFEFIEFASPTPGTLEPIFEIMGFTKVATHRSKNVHLYRQGEINLILNNEPNSIASYFAAEHGPSVCGMAFRVKDSQKAYNRALELGAQPIHIDTGPMELNLPAIKGIGGAPLYLIDRFGEGSSIYDIDFVYLEGVERNPVGAGLKVIDHLTHNVYRGRMVYWANFYEKLFNFREARYFDIKGEYTGLTSKAMSAPDGMIRIPLNEESSKGAGQIEEFLMQFNGEGIQHVAFLTDDLVKTWDALKKIGMRFMTAPADSYYEMLEGRLPDHGEPVDQLQARGILLDGSSVEGDKRLLLQIFSETLMGPVFFEFIQRKGDDGFGPDSFKVLFESIERDQVRRGVLTAD
modifications: mutant HPPD polypeptide
- Residual turnover [%]: 45%
- Turnover: 0.144
- Residual turnover: 0.065

B4: 57 (protein)
chain: MADLYENPMGLMGFEFIEFASPTPGTLEPIFEIMGFTKVATHRSKNVHLYRQGEINLILNNEPNSIASYFAAEHGPSVCGMAFRVKDSQKAYNRALELGAQPIHIDTGPMELNLPAIKGIGGAPLYLIDRFGEGSSIYDIDFVYLEGVERNPVGAGLKVIDHLTHNVYRGRMVYWANFYEKLFNFREARYFDIKGEYTGLTSKAMSAPDGMIRIPLNEESSKGAGQIEEFLMQFNGEGIQHVAFLTDDLVKTWDALKKIGMRFMTAPADNYYEMLEGRLPDHGEPVDQLQARGILLDGSSVEGDKRLLLQIFSETLMGPVFFEFIQRKGDDGFGPHSFKVLFEQKERDQVRRGVLTAD
modifications: mutant HPPD polypeptide
- Residual turnover [%]: 59%
- Turnover: 0.167
- Residual turnover: 0.099

B5: 55 (protein)
chain: MADLYENPMGLMGFEFIEFASPTPGTLEPIFEIMGFTKVATHRSKNVHLYRQGEINLILNNEPNSIASYFAAEHGPSVCGMAFRVKDSQKAYNRALELGAQPIHIDTGPMELNLPAIKGIGGAPLYLIDRFGEGSSIYDIDFVYLEGVERNPVGAGLKVIDHLTHNVYRGRMVYWANFYEKLFNFREARYFDIKGEYTGLTSKAMSAPDGMIRIPLNEESSKGAGQIEEFLMQFNGEGIQHVAFLTDDLVKTWDALKKIGMRFMTAPADNYYEMLEGRLPDHGEPVDQLQARGILLDGSSVEGDKRLLLQIFSETLMGPVFFEFIQRKGDDGFGPHSFKVLFESKERDQVRRGVLTAD
modifications: mutant HPPD polypeptide
- Residual turnover [%]: 50%
- Turnover: 0.189
- Residual turnover: 0.095

From US11180770B2, “HPPD variants and methods of use” (BASF Agricultural Solutions Seed US LLC, priority 2017, dated 2021)
